# Measurements taken from the nanobody polyreactivity screen of Harvey et al. (2022).
# Test: yeast display, Sf9 membrane polyspecificity reagent, FACS + sequencing; frameworks hold sequencing errors
# How it was run: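 A nanobody's polyreactivity label depends on the gate it was sorted from. Yeast display cells were stained with 10% biotinylated, detergent-solubilized Sf9 membrane reagent for 1 hour at 4 °C, enriched on streptavidin microbeads and sorted by FACS. The low and high (top ~1%) gates were set on anti-HA fluorescence for expression and streptavidin fluorescence for reagent binding.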
row,Sequence,polyreactivity (PSR sort gate)
1,QDQLVESGGGLVQAGGSLRLSCAASGVTFVTYAMGGSRQAPGKERELVAAITTGGSTNYADSVKGRFTISRDNAKNTVYLQMNSLKPEDTAVYYCAAQRVSVLLFVRHDYWGQGTQVTVSS,low polyreactivity
2,QDQLVESGGGLVQAGGSLRLSCAASGYTFKAYAMVWYRQAPGKERELVDAISRGGRTNYADSVKGRFTISRDNAKNTVYLQMNSLKPEDTAVYYCNTQRQLGVRFYDRSRQGDYWGQGTQVTVSS,high polyreactivity
3,QDQLVESGGGLVQAGGSLRLSCAASGYTFSYYAMGWYRQAPGKERELVAAITSTGSTYYADSVKGRFTISRDYAKNTVYLQMNILKPEDTAVYYCNVDDATVGPVDYWGQGTQVTVSS,low polyreactivity
4,QDQLVESGGGLVQAGGSLRLSCAASRLTFYVYAMGWYRQAPGKERELVAAISGRGGRTYYADSVKGRFTISRDNAKNTVYLQMNSLKPEDTAVYDCAPRYPRYRYVEYGYNYWGQGTQVTVSS,high polyreactivity
5,QDQLVESGGGLVQAGGSLRLSCAASVFIFYSYTRGWYRQAPGKERELVATISSNGGRTYYADSVKGRFTISRDNAKNTVYLQMNSLKPEDTAVYYCATDVPHGYYWSYGDYYCGQGTQVTVSS,low polyreactivity
6,QDQLVESGGGLVQAGGSLRLSCAASVSIFASYAMGRYRPAPGKERELVAAISSRGSRTYYADSVKGRFTISRDNAKNTVYLQMNRLKPQDTAVYYCAAYSPDYYNAEFGYWGQGTHVTVSS,high polyreactivity
7,QDQLVESGGGLVQAGGSLRLSCASSGFTIVYYAMGWYRQAPGKERELVADISSYGSTYADSVKGRFTISRDNAKNTVYLLMNSLKPEDTAVYYCAAEYIYQPHYGYYYWGQGTQVTVSS,high polyreactivity
8,QDQLVESGGGLVQAGGSLRLSCRASGFTFTHYAMGWSRKAPGKERELVAAIDRSGDSTYYADSVKGRFTISRDNAKNTVYLQMNSLKPEDTAVYYSAADLFDSLIWVYWTYVARFDYWGQGTQVTVSS,low polyreactivity
9,QDQLVESGGGLVQAGGSLRLSCSASGSIVGLYAMGWYRQAPGKERELVAAITASDGYTYYADSVKGRFTNSRDNAKNTVYLQMNSLKPEDTAVYYCNADAYSGYFLFDYWGQGTQVNVSS,low polyreactivity
10,QDQLVESGGGLVQAGGSLRLSCSAYGSILKNNAMGLYIQSPGQERELVAAISSDGSTNYADSVKGRFRISRDNAKNTVYLQMNSLKPEDTAVYYCAAHDNGAWVRMDYWGQGTQVTVSS,low polyreactivity
11,QDQLVESGGGLVQAGGSLRLSFAASGATFKRYAMGWYRQAPGKERELVATINSGTSTNYADSVKGRFTISRDNAKNTVYLQMNSLKPEDTAVYYCAKTFRRSVGGYGYDYWGQGTQVTVSS,low polyreactivity
12,QDQLVESGGGLVQAGGSLRLSSAASGFTFAHYARGWYRQAPGKERELVAAISGSGSSTYYADSVKGRFTISRDNAKNTVYLQMNSLKPEDTAVYYCNVRWYFLYDYWGQGTQVTVSS,low polyreactivity
13,QDQLVESGGGLVQAGGSLRLSSAASGRIFKWNAMGWYRPAPGTERQLVAAIRWSGTSTYADSVKGRFTISRDNAKNTVYLHMNSLKPEDTAVYYCAAQDVSAPGWWLHYWGQGTQVTVSS,low polyreactivity
14,QDQLVESGGGLVQAGGSLRLSSAGSGSIFFSYAMGWYRQAPGKEREFVAAINSDDASTYADSVKGRFTISRDNAKNTVYLQMNSLKPEDTAVYYCAASFLWSWYDYWGQGTQVTVSS,low polyreactivity
15,QDQLVESGGGLVQAGGSLRLTCAASGFTIWYYAMGWYRQAPGKERELVAAISSVSSTKYADSVKGRFTISRDNAKNTVYFQMNSLKPEDTAVYYCAADIVRYWRHGFGWRRYDYWGQGTQVTVSS,high polyreactivity
16,QDQLVESGGGLVQAGGSLRRSCAASGFTFFIYAMGWYRQAPGKEREFVAAITGSGGSTYYADSVKGRFTISRDNAKNTVYLQMNRLKPEDTAVYYCNKLSYGRSGYWGQGTQVTVSS,high polyreactivity
17,QDQLVESGGGLVQAGGSLSLSCAASGSIIPNYAMGWYRQAPGKERELVAAISSSGGRTYYADSVKGRFTISRDNAKNTVYLQMNCLKPEDTAVYYCAADTYTSAQHEKYDYWGQGTQVTVSS,low polyreactivity
18,QDQLVESGGGLVQAGGTLRLRCAATGSTVYPTYAMGWYRQAPGKEWELVATITGSGGYTYYADSVKGRFTISRDNAKNTVYLQINSLKPEDTAVYYCAADRWYSRYTRYGYRGQGTQVTVSS,low polyreactivity
19,QDQLVESGGGLVQARGSLRLICSASGFIISDYAMGWSRQAPGEERELVAVITWRSGSTYYADSVKGRFTISRDNAKNTVYLQMNSLKPEDTAVYYCAARYYRNYSQGRRLGYNYWGQGTQVTVSS,high polyreactivity
20,QDQLVESGGGLVQAVGSLRLSCAASGRIFVYNAMGGYRQAPGKEREFVATITSSGGRTYYADSVKGRFTISRDNSKNTVYLQMNSLKPEDTAVYYCAARPQNNGRNPVYRYNYWGQGTQVTVSS,high polyreactivity
21,QDQLVESGGGLVQEGGSLRLICGASGFIFPTNAMGWYRPAPGKERELVAAISRSGGTTNYADSVKGRFTISRDNAKNTVYLQRNSLKPEDTAVYYCNRGWATWHGPDDYWGQGTQVTVSS,high polyreactivity
22,QDQLVESGGGLVQEGGSLRLSCAASGRTFISKVMGWYRQAPGKERELVAAISGSSGSTRYADSVKGRFTISRDYAKNTVYLQMNSLKPEDTAVYYCAPRAPWPKWGYYYWGLGTQVTVSS,high polyreactivity
23,QDQLVESGGGLVQGGGSLRLSCAGSGFTFSRYAMGSYRQAPGKERELVAAITRRRGRTYYADSVKGRFTISLDNAKNTVYFKMNSLYPEDTAVYYCNTDAYRLGYDYWGQGTQVTVSS,high polyreactivity
24,QDQLVESGGGVVQAGGSLRLSCAASGSTFEYNAMGWYRQAPGKERELVASSTNYADSVKGRFTISRDNAKNTVYLQMNSLKPEDTAVYYCGREQGVNRNHDYWGQGTQVTVSS,low polyreactivity
25,QDQLVESGRGLVQAGGSLRLSCAASGINIPVYAMGWYRKAPRKERELLAAISSGGSTYYADSVKGRFTISRDNAKNTVYLQMNSLKPEDTAVYYCAAATRSAKYRFGYWGQGTQVTVSS,high polyreactivity
26,QDQLVESGRGLVQEGGSLRLSCAASGSIFWSNGMGWYRQAPGKERELVATISSSGSDTYYAASVKGRFTISRDTAKNTVYFQMNSLKPEDTAVYYCNVYSIWGTYDYRGQGTQVTVSS,low polyreactivity
27,QDQLVESGVGFVQAGVSLRLSSAASGSIFYLNAMGWYRQAPGKERELVAAITNGGSTYADSVKGRFTISRDNAKNTVYLPMNSLKPEDPAVYYCATRSWELGDYLGQGTQVTVSS,low polyreactivity
28,QDQLVESRGGLVQAGGSLRLSCAASGFTFYRYAMGWYRQAPGKERELVAAITWRGTSTYYADSVKGRFTISRDNAKNTVYLQMNSLKPEDTAVYYCNADRGYKYDYWGQGTQVTVSS,high polyreactivity
29,QDQLVESRGGLVQAGGSLRLSCAASGSIFIENTMGWYRQAPGKERELVAAISGSVGRTFYADSVKGRFTISRDNAKNTVYLQMNSLKPEDTAVYYCAAVRRTSPGWVYYWGQGTRVTVSS,high polyreactivity
30,QDQLVESRVGLVQAGGSLRLSCAASGRIIPKYAMGWYRQAPGKERELVAAISSSGGSTYYADSVKGRFTISRDYAKNNVYLQMNSLNPEVTAVYYCNVDKATRYRYPGFDYWGQGTQVSVSS,high polyreactivity
